Experiment [1] addresses GST-β3cyto (GST fusion protein of the integrin β3 cytoplasmic domain) (UniProt P05106). Briefly: phage binding to coated microtiter wells; colonies from β3-GST wells divided by colonies from BSA wells.
Experiment [2] has the same target. Description: phage binding to coated microtiter wells; colonies from β3-GST wells divided by colonies from GST wells.
For experiment [3] the target is unchanged. Briefly: phage binding to coated wells; β3 colonies divided by BSA colonies.
For experiment [4] the target is unchanged. Description: phage binding to coated wells; β3 colonies divided by GST colonies.
Experiment [5] shares this target. Description: phage binding to β3 cytoplasmic domain wells; colonies with Fyn-phosphorylated phage divided by colonies with unphosphorylated phage.
The target of experiment [6] is GST-β5cyto (GST fusion protein of the integrin β5 cytoplasmic domain) (UniProt P18084). Briefly: phage binding to coated wells; β5 colonies divided by BSA colonies.
GST-β5cyto (GST fusion protein of the integrin β5 cytoplasmic domain), sequence (P18084 743-799): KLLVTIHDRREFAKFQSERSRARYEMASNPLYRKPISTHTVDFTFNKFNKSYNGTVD
For experiment [7] the target is unchanged. Description: phage binding to coated wells; β5 colonies divided by GST colonies.
Experiment [8] has the same target. Description: phage binding to β5 cytoplasmic domain wells; colonies with Fyn-phosphorylated phage divided by colonies with unphosphorylated phage.
The target in experiment [9] is Aminopeptidase A (APA, EC 3.4.11.7) (UniProt Q07075 1-957, limits assumed). Description: cell-based or functional assay.
Aminopeptidase A (APA, EC 3.4.11.7), sequence (Q07075 whole entry): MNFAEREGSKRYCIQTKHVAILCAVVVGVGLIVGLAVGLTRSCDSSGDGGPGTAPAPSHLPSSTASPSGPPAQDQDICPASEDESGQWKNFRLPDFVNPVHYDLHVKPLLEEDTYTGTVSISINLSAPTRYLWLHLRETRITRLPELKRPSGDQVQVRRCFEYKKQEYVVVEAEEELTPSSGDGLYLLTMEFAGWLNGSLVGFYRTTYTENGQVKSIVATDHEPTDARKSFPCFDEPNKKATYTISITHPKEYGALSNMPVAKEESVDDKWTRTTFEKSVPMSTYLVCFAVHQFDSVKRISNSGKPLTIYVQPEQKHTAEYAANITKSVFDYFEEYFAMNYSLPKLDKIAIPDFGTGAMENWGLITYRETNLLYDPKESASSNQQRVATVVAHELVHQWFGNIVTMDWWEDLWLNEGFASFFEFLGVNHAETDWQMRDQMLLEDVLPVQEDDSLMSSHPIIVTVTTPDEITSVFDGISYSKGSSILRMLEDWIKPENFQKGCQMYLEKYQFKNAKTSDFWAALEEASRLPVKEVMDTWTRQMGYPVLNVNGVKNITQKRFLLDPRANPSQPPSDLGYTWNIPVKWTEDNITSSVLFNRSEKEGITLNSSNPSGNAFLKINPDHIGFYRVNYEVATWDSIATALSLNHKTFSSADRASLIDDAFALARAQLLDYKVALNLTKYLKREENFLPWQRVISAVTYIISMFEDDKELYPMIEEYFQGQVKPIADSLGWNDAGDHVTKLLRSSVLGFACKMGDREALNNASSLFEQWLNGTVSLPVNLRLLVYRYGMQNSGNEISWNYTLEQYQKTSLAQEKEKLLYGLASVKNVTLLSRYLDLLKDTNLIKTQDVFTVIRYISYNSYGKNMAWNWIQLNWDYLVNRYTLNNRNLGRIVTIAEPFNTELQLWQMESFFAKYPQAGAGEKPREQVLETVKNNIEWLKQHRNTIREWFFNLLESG
The target of experiment [10] is T1, prohibitin (B cell receptor associated protein; prohibitin receptor protein complex) (mouse).
T1 sequence (P67778 2-272, looked up): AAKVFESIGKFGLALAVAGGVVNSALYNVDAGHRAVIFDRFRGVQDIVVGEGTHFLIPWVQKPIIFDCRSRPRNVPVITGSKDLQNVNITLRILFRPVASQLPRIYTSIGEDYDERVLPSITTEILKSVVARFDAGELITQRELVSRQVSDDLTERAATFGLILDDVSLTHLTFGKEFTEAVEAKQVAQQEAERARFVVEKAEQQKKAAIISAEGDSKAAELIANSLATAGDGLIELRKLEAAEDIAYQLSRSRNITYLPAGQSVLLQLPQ
Description: immunoprecipitation from mouse adipose tissue extract with peptide-(KLAKLAK)2 conjugates, SDS-PAGE (data not shown).

The target of experiment [11] is GST-β5cyto (GST fusion protein of the integrin β5 cytoplasmic domain) (UniProt P18084). Description: phage binding to coated microtiter wells; colonies from β5-GST wells divided by colonies from BSA wells.
Experiment [12] has the same target. Description: phage binding to coated microtiter wells; colonies from β5-GST wells divided by colonies from GST wells.

Bridge positions count the residues as written; N and C are the ends. Square brackets hold non-standard residues; d marks the D form. Ends that are not written are not given here. pY = N[C@@H](Cc1ccc(OP(=O)(O)O)cc1)C(=O)O Some results are limits rather than exact numbers.

GST-β3cyto (GST fusion protein of the integrin β3 cytoplasmic domain), sequence (P05106 742-788): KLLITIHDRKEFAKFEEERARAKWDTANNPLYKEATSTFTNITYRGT

For the molecule AGWLYMSWK [phage displaying … (SEQ ID NO:35)], the β3/BSA Ratio in experiment [1] turned out to be 2.4. Also, the β3/GST Ratio in experiment [2] worked out at 1.8.
In turn, MLLG[pY]RFEK (also: displayed on phage pIII) [Fyn-phosphorylated phage displaying … (SEQ ID NO:51)] registered a β3 or β5/BSA in experiment [3] of 2.7. The same molecule had a β3 or β5/GST in [4] of 3.5. The molecule also gave a Phos/Unphos in experiment [5] of 2.5.
In turn, TLRK[pY]FHSS (also: displayed on phage pIII) [Fyn-phosphorylated phage displaying … (SEQ ID NO:54)] had a β3 or β5/BSA in experiment [6] of 15.2. For the same molecule, in [7], the β3 or β5/GST came out at 3.8. The molecule further displayed a Phos/Unphos in [8] of 3.8.
As for TMLR[pY]FMFP (also: displayed on phage pIII) [Fyn-phosphorylated phage displaying … (SEQ ID NO:53)], the β3 or β5/BSA in experiment [6] was 3.8. The same molecule showed a β3 or β5/GST in experiment [7] of 2.3. In [8], this molecule had a Phos/Unphos of 4.2.

B1: soluble CPRECESIC (SEQ ID NO:56) peptide (peptide)
peptide: CPRECESIC
modifications: disulfide (positions not given here); not fully specified; also: mix of six MS peaks: possibly different disulfide positions and dimers
Turning to B1, in experiment [9], the “IC50 for inhibition of APA enzyme activity (α-glutamyl-p-nitroanilide, SK-RC-49/APA cells)” value is 800 µM.
CKGGRAKDCGG[dK][dL][dA][dK][dL][dA][dK][dK][dL][dA][dK][dL][dA][dK] (disulfide 1-9) [… (SEQ ID NO:22) conjugated to (KLAKLAK)2 (SEQ ID NO:1)]: the fold enrichment in the … precipitated fraction compared to the CARAC precipitated fraction in [10] is > 10 >fold.
With TMLR[pY]TVRL (also: displayed on phage pIII) [Fyn-phosphorylated phage displaying … (SEQ ID NO:52)], in experiment [6], the β3 or β5/BSA was determined as 2.2. The β3 or β5/GST in experiment [7] turned out to be 3.4. Also, in experiment [8], the Phos/Unphos was determined as 14.3.
In turn, RAIL[pY]RLAN (also: displayed on phage pIII) [Fyn-phosphorylated phage displaying … (SEQ ID NO:50)] came in with a β3 or β5/BSA in experiment [3] of 20. The same molecule gave a β3 or β5/GST in experiment [4] of 1.3. Further, in experiment [5], the Phos/Unphos stood at 2.8.
Consider CKLWQEDGY (also: displayed on phage pIII) [phage displaying … (SEQ ID NO:42)], for which the β5/BSA Ratio in experiment [11] was found to be 665. Besides, the β5/GST Ratio in experiment [12] was determined as 1.8.
Consider GGGS[pY]RHVE (also: displayed on phage pIII) [Fyn-phosphorylated phage displaying … (SEQ ID NO:49)], for which the β3 or β5/BSA in [3] was 5.3. The molecule further showed a β3 or β5/GST in experiment [4] of 1.5. For the same molecule, the Phos/Unphos in [5] was 13.2.

For the origin of these results see patent publication US20060094672A1 (University of Texas, published 2006).
